# In the Immune Epitope Database (IEDB):
# What was measured:
# Experiment in all cases: IEDB peptide-MHC binding, purified MHC/competitive/radioactivity; filed as Kd, often an IC50 or EC50 that approximates it; ≥ and ≤ were set here for values at or beyond the usual limits of such assays
# HLA-A*31:01 = molecular target: HLA-A*31:01
# HLA-A*68:01 = molecular target: HLA-A*68:01
# HLA-A*11:01 = molecular target: HLA-A*11:01
# HLA-A*33:01 = molecular target: HLA-A*33:01
# HLA-A*03:01 = molecular target: HLA-A*03:01
# HLA-A*02:03 = molecular target: HLA-A*02:03
# HLA-A*02:06 = molecular target: HLA-A*02:06
# [1] = source organism: Vaccinia virus WR
# [2] = source organism: SARS coronavirus Tor2
# [3] = source organism: Lassa virus Josiah
# [4] = source organism: Dengue virus 4 Philippines/H241/1956
# [5] = source organism: Mammarenavirus lassaense
# [6] = source organism: Mammarenavirus brazilense
# [7] = source organism: Mammarenavirus guanaritoense
# [8] = source organism: Mammarenavirus whitewaterense
sequence,measurement,setting,value
LSSKGLACY,Kd,HLA-A*31:01; [1],13.3 µM
same,Kd,HLA-A*68:01; [1],8.34 µM
same,Kd,HLA-A*11:01; [1],5.49 µM
same,Kd,HLA-A*33:01; [1],≥ 77.7 µM
same,Kd,HLA-A*03:01; [1],0.777 µM
IVTVTTKDY,Kd,HLA-A*31:01; [1],8.98 µM
same,Kd,HLA-A*68:01; [1],1.69 µM
same,Kd,HLA-A*11:01; [1],≥ 32.6 µM
same,Kd,HLA-A*33:01; [1],18.4 µM
same,Kd,HLA-A*03:01; [1],1.93 µM
LLVAHYAII,Kd,HLA-A*02:03; source organism: Dengue virus 2 Jamaica/1409/1983,0.0273 µM
VIILAALFMY,Kd,HLA-A*31:01; [1],≥ 70 µM
same,Kd,HLA-A*68:01; [1],≥ 51.8 µM
same,Kd,HLA-A*11:01; [1],0.449 µM
same,Kd,HLA-A*33:01; [1],≥ 70 µM
same,Kd,HLA-A*03:01; [1],2.66 µM
ELMMTTIGIV,Kd,HLA-A*02:03; source organism: Dengue virus 2 Peru/IQT2913/1996,0.00202 µM
IVTFRERYSY,Kd,HLA-A*31:01; [1],0.194 µM
same,Kd,HLA-A*68:01; [1],1.02 µM
same,Kd,HLA-A*11:01; [1],0.144 µM
same,Kd,HLA-A*33:01; [1],14.3 µM
same,Kd,HLA-A*03:01; [1],0.469 µM
LLRALRLTK,Kd,HLA-A*31:01; [2],0.851 µM
same,Kd,HLA-A*68:01; [2],≥ 59.9 µM
same,Kd,HLA-A*11:01; [2],3.86 µM
same,Kd,HLA-A*33:01; [2],≥ 23.9 µM
same,Kd,HLA-A*03:01; [2],0.0244 µM
KTKISVEKIK,Kd,HLA-A*31:01; [1],0.818 µM
same,Kd,HLA-A*68:01; [1],≥ 24.7 µM
same,Kd,HLA-A*11:01; [1],0.275 µM
same,Kd,HLA-A*33:01; [1],≥ 70 µM
same,Kd,HLA-A*03:01; [1],4.2 µM
DIFVSLVKK,Kd,HLA-A*31:01; [1],≥ 77.9 µM
same,Kd,HLA-A*68:01; [1],0.000538 µM
same,Kd,HLA-A*11:01; [1],0.0278 µM
same,Kd,HLA-A*33:01; [1],0.054 µM
same,Kd,HLA-A*03:01; [1],9.92 µM
EARIVDKFGK,Kd,HLA-A*31:01; [1],0.633 µM
same,Kd,HLA-A*68:01; [1],0.101 µM
same,Kd,HLA-A*11:01; [1],2.57 µM
same,Kd,HLA-A*33:01; [1],≥ 20.5 µM
same,Kd,HLA-A*03:01; [1],7.73 µM
CLAVHECFVK,Kd,HLA-A*31:01; [2],7.51 µM
same,Kd,HLA-A*68:01; [2],2.27 µM
same,Kd,HLA-A*11:01; [2],3.46 µM
same,Kd,HLA-A*33:01; [2],≥ 61.4 µM
same,Kd,HLA-A*03:01; [2],3.05 µM
ISSVLTILYY,Kd,HLA-A*31:01; [1],5.89 µM
same,Kd,HLA-A*68:01; [1],0.162 µM
same,Kd,HLA-A*11:01; [1],0.155 µM
same,Kd,HLA-A*33:01; [1],1.43 µM
same,Kd,HLA-A*03:01; [1],0.561 µM
LSCTKNNSHH,Kd,HLA-A*31:01; [3],≥ 70 µM
same,Kd,HLA-A*68:01; [3],≥ 37.4 µM
same,Kd,HLA-A*11:01; [3],≥ 63.8 µM
same,Kd,HLA-A*33:01; [3],≥ 70 µM
same,Kd,HLA-A*03:01; [3],≥ 70 µM
IISDMYDPR,Kd,HLA-A*31:01; [2],0.325 µM
same,Kd,HLA-A*68:01; [2],0.00541 µM
same,Kd,HLA-A*11:01; [2],0.122 µM
same,Kd,HLA-A*33:01; [2],1.34 µM
same,Kd,HLA-A*03:01; [2],12.8 µM
IAVASGLLWV,Kd,HLA-A*02:06; [4],0.0106 µM
KQIRSAAKK,Kd,HLA-A*31:01; [2],1.08 µM
same,Kd,HLA-A*68:01; [2],1.33 µM
same,Kd,HLA-A*11:01; [2],0.0737 µM
same,Kd,HLA-A*33:01; [2],≥ 77.7 µM
same,Kd,HLA-A*03:01; [2],0.0431 µM
GVAPGTAVLR,Kd,HLA-A*31:01; [2],2.85 µM
same,Kd,HLA-A*68:01; [2],0.0432 µM
same,Kd,HLA-A*11:01; [2],0.165 µM
same,Kd,HLA-A*33:01; [2],≥ 41.9 µM
same,Kd,HLA-A*03:01; [2],1.32 µM
TCQGSEDIK,Kd,HLA-A*31:01; [5],≥ 61.3 µM
same,Kd,HLA-A*68:01; [5],≥ 30 µM
same,Kd,HLA-A*11:01; [5],15.1 µM
same,Kd,HLA-A*33:01; [5],≥ 77.7 µM
same,Kd,HLA-A*03:01; [5],≥ 78 µM
RTTWAFCEV,Kd,HLA-A*02:06; [4],0.0231 µM
DMMFINSTCY,Kd,HLA-A*31:01; [1],0.974 µM
same,Kd,HLA-A*68:01; [1],1.91 µM
same,Kd,HLA-A*11:01; [1],10.8 µM
same,Kd,HLA-A*33:01; [1],0.883 µM
same,Kd,HLA-A*03:01; [1],0.821 µM
RALKYDFNH,Kd,HLA-A*31:01; [6],0.0652 µM
same,Kd,HLA-A*68:01; [6],6.97 µM
same,Kd,HLA-A*11:01; [6],4.37 µM
same,Kd,HLA-A*33:01; [6],7.17 µM
same,Kd,HLA-A*03:01; [6],5.7 µM
TAIKEVVMAY,Kd,HLA-A*31:01; [1],4.28 µM
same,Kd,HLA-A*68:01; [1],0.317 µM
same,Kd,HLA-A*11:01; [1],1.11 µM
same,Kd,HLA-A*33:01; [1],≥ 21.4 µM
same,Kd,HLA-A*03:01; [1],4.43 µM
KQMYKTPTLK,Kd,HLA-A*31:01; [2],0.0953 µM
same,Kd,HLA-A*68:01; [2],8.22 µM
same,Kd,HLA-A*11:01; [2],0.0175 µM
same,Kd,HLA-A*33:01; [2],11.4 µM
same,Kd,HLA-A*03:01; [2],0.00231 µM
KVAGFAKFLK,Kd,HLA-A*31:01; [2],0.0318 µM
same,Kd,HLA-A*68:01; [2],0.0118 µM
same,Kd,HLA-A*11:01; [2],0.0108 µM
same,Kd,HLA-A*33:01; [2],3.18 µM
same,Kd,HLA-A*03:01; [2],0.00852 µM
ITFFQEVPH,Kd,HLA-A*31:01; [5],8.04 µM
same,Kd,HLA-A*68:01; [5],0.0725 µM
same,Kd,HLA-A*11:01; [5],0.197 µM
same,Kd,HLA-A*33:01; [5],≥ 77.7 µM
same,Kd,HLA-A*03:01; [5],10.8 µM
AVVCYNSNY,Kd,HLA-A*31:01; [2],14.2 µM
same,Kd,HLA-A*68:01; [2],10.1 µM
same,Kd,HLA-A*11:01; [2],0.698 µM
same,Kd,HLA-A*33:01; [2],≥ 77.7 µM
same,Kd,HLA-A*03:01; [2],5.4 µM
IIVLFQRFLR,Kd,HLA-A*31:01; [1],0.00133 µM
same,Kd,HLA-A*68:01; [1],0.00305 µM
same,Kd,HLA-A*11:01; [1],0.0443 µM
same,Kd,HLA-A*33:01; [1],0.0131 µM
same,Kd,HLA-A*03:01; [1],0.941 µM
GMAMTTVLSI,Kd,HLA-A*02:03; [4],0.00652 µM
QLPQGTTLPK,Kd,HLA-A*31:01; [2],8.64 µM
same,Kd,HLA-A*68:01; [2],0.317 µM
same,Kd,HLA-A*11:01; [2],0.396 µM
same,Kd,HLA-A*33:01; [2],≥ 37 µM
same,Kd,HLA-A*03:01; [2],0.0525 µM
EACYIYKSGK,Kd,HLA-A*31:01; [1],6.45 µM
same,Kd,HLA-A*68:01; [1],0.0318 µM
same,Kd,HLA-A*11:01; [1],1.01 µM
same,Kd,HLA-A*33:01; [1],11.1 µM
same,Kd,HLA-A*03:01; [1],1.08 µM
PQDNQLAYV,Kd,HLA-A*02:06; source organism: Dengue virus 1 Brazil/97-11/1997,0.166 µM
TNFESFTVK,Kd,HLA-A*31:01; [7],0.27 µM
same,Kd,HLA-A*68:01; [7],0.0243 µM
same,Kd,HLA-A*11:01; [7],1.44 µM
same,Kd,HLA-A*33:01; [7],≥ 77.7 µM
same,Kd,HLA-A*03:01; [7],0.365 µM
KFYGPFVDR,Kd,HLA-A*31:01; [2],0.000454 µM
same,Kd,HLA-A*68:01; [2],3.26 µM
same,Kd,HLA-A*11:01; [2],1.42 µM
same,Kd,HLA-A*33:01; [2],2.04 µM
same,Kd,HLA-A*03:01; [2],7.68 µM
CYLDTNIKM,Kd,HLA-A*31:01; [1],0.285 µM
same,Kd,HLA-A*68:01; [1],≥ 25.8 µM
same,Kd,HLA-A*11:01; [1],≥ 77.9 µM
same,Kd,HLA-A*33:01; [1],10.9 µM
same,Kd,HLA-A*03:01; [1],≥ 38.6 µM
LFYVSSIFLH,Kd,HLA-A*31:01; [8],0.319 µM
same,Kd,HLA-A*68:01; [8],0.98 µM
same,Kd,HLA-A*11:01; [8],2.24 µM
same,Kd,HLA-A*33:01; [8],0.0737 µM
same,Kd,HLA-A*03:01; [8],6.04 µM
KLSSIKSKSR,Kd,HLA-A*31:01; [1],0.104 µM
same,Kd,HLA-A*68:01; [1],18.6 µM
same,Kd,HLA-A*11:01; [1],9.91 µM
same,Kd,HLA-A*33:01; [1],≥ 27.7 µM
same,Kd,HLA-A*03:01; [1],0.514 µM
